Where no end group is shown, it is not given here.
T1: eGFP-gephyrin (UniProt Q03555 1-768)
T1 construct: gephyrin; source: COS-7 cells, expressed, cells fixed; 'mammalian cells' for the test of SyliteCy3
T1 sequence (looked up): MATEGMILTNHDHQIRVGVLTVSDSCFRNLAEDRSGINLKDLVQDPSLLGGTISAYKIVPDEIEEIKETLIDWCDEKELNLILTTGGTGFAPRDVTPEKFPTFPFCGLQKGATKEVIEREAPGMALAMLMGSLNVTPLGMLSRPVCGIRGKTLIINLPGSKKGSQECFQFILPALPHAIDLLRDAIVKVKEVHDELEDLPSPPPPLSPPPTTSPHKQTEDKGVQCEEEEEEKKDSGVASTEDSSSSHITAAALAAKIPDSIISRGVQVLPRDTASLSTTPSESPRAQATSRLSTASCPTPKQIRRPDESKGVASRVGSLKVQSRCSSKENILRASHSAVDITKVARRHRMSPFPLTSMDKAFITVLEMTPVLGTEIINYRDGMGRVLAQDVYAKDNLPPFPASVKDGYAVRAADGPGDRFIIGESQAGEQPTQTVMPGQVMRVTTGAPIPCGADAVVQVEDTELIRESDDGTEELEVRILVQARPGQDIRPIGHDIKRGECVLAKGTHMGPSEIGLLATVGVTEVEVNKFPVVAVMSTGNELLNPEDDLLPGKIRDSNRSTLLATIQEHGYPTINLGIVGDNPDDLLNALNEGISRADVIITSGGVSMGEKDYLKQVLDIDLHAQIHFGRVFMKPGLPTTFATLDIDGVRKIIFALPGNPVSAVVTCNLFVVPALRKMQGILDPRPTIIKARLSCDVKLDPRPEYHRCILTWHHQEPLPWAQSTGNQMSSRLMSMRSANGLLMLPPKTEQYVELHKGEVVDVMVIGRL

B1: SyliteM (peptide)
chain: FSIVGSYPRRRRRRRRR
modifications: also: fluorophore
B2: Sylite (peptide)
chain 1: YSIVGSYPRKC(maleimide‑Cy5)
chain 2: YSIVGSYPR
modifications: also: two chains joined via linker, linkage not given here

Columns and labels:
[1] = biological target: T1, eGFP-gephyrin; assay: immunostaining of cells or tissue; fixed COS-7 cells expressing eGFP-gephyrin or eGFP alone, stained with the fluorescent probes (50 nM Sylite); probe signal at eGFP-rich regions; details: one partner purified
[2] = biological target: B2; assay: ITC; Sylite or SyliteM titrated with purified gephyrin E domain; N=3; details: both partners purified
[3] = biological target: B1; assay: as above; details: both partners purified

| Binder | signal-to-background ratio (SBR) [1] | Kd [2] | stoichiometry N [2] | Kd [3] |
| --- | --- | --- | --- | --- |
| B1 | 36 |  |  |  |
| gephyrin E domain (domain or fragment) SSKENILRASHSAVDITKVARRHRMSPFPLTSMDKAFITVLEMTPVLGTEIINYRDGMGRVLAQDVYAKDNLPPFPASVKDGYAVRAADGPGDRFIIGESQAGEQPTQTVMPGQVMRVTTGAPIPCGADAVVQVEDTELIRESDDGTEELEVRILVQARPGQDIRPIGHDIKRGECVLAKGTHMGPSEIGLLATVGVTEVEVNKFPVVAVMSTGNELLNPEDDLLPGKIRDSNRSTLLATIQEHGYPTINLGIVGDNPDDLLNALNEGISRADVIITSGGVSMGEKDYLKQVLDIDLHAQIHFGRVFMKPGLPTTFATLDIDGVRKIIFALPGNPVSAVVTCNLFVVPALRKMQGILDPRPTIIKARLSCDVKLDPRPEYHRCILTWHHQEPLPWAQSTGNQMSSRLMSMRSANGLLMLPPKTEQYVELHKGEVVDVMVIGRL |  | 17.5 nM | 2 gephyrin E domain per probe | 205 nM |
| B2 | 492 |  |  |  |

Reference: article PMC9400903, “A Versatile Synthetic Affinity Probe Reveals Inhibitory Synapse Ultrastructure and Brain Connectivity**” (Angewandte Chemie (International Ed. in English), 2022)
